According to US9309303B2, “Complexation of fatty acid-conjugated molecules with albumin” (The University of the Sciences in Philadelphia, priority 2007, dated 2016):
Ends that are not written are not given here. fluorescein = fluorescein conjugated to the primary amine of the Lys side chain through an MHS ester

What was measured:
[1] = esterase assay, p-nitrophenyl acetate hydrolysis; type: biochemical; details: 5 μM p-nitrophenyl acetate, 40 μg protein, pH 7.4, 37° C., 390 nm
Experimental: The reaction of p-nitrophenyl acetate hydrolysis-mediated by rHSA and RGD-rHSA was assessed spectrophotometrically at 390 nm by monitoring the appearance of p-nitrophenol. The reaction mixtures contained 5 μM p-nitrophenyl acetate and 40 μg protein in 67 mM phosphate buffer (pH 7.4). Reactions were performed at 37° C.

[2] = molecular target: T1, αvβ3 integrin (Homo sapiens, UniProt P05106+P06756); assay: αvβ3 integrin-binding assay (co-immunoprecipitation / Ni2+ pull-down, Western blotting); details: co-immunoprecipitation and Western blotting
T1 construct: 300 μg MDA-MD-435S (αvβ3 positive) cell extract; endogenous in cells; host or cells: MDA-MB-435S (printed MDA-MD-435S) cell extract
T1 sequence (P06756 31-889 limits assumed): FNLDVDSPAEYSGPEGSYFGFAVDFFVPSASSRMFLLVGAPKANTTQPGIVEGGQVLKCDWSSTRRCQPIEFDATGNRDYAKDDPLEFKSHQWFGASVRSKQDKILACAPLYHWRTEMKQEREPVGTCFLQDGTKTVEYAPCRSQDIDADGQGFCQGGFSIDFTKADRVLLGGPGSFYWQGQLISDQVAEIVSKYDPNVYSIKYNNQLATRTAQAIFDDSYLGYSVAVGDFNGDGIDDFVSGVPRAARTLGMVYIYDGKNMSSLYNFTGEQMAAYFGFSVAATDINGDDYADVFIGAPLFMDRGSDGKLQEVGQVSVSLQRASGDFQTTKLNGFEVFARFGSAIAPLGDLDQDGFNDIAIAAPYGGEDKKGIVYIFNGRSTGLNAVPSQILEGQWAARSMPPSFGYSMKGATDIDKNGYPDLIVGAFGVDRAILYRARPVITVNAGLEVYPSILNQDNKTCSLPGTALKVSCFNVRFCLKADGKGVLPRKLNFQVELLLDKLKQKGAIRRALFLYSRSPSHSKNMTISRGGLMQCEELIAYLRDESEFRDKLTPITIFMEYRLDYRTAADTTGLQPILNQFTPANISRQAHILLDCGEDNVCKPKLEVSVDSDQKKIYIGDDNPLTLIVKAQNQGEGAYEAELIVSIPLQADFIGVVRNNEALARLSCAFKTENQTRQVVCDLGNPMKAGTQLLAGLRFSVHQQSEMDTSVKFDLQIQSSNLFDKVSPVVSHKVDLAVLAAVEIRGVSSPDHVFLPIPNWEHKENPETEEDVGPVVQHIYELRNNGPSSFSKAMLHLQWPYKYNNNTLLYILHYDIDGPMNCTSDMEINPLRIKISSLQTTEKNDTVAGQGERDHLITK
T1 sequence (P06756 891-1048 partner limits assumed): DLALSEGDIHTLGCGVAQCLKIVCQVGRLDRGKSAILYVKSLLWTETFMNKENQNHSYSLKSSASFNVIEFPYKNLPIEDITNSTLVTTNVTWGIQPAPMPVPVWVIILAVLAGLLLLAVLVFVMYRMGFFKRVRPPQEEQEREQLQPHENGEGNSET
T1 sequence (P05106 27-788): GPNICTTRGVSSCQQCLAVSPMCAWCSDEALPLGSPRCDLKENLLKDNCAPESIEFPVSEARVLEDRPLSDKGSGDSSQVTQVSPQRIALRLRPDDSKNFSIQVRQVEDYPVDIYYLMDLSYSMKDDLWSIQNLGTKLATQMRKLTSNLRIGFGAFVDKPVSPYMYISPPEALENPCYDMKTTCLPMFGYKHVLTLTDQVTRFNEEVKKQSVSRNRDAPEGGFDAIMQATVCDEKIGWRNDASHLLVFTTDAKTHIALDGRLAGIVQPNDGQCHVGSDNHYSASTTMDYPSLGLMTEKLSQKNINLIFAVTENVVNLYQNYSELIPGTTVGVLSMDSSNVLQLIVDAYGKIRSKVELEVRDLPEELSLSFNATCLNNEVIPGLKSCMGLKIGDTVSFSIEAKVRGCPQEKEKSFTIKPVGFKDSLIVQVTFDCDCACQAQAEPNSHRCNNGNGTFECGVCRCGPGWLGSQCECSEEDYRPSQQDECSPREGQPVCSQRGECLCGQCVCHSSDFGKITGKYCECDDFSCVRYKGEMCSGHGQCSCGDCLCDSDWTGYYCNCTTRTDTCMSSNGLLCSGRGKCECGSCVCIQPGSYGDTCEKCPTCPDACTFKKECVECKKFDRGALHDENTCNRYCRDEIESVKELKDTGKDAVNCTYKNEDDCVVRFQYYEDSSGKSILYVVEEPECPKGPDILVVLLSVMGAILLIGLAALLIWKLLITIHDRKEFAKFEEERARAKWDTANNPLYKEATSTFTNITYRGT
Experimental: Lanes 3 and 6 each contained mixture of 300 μg MDA-MD435S cell extract and 1.2 μg of RGD-rHSA (wild type HSA). For the convenience of purification and detection, all rHSAs were fused with c-terminal c-myc and His6 tags. For lane 1, 2, and 3, the αvβ3 complexes were immunoprecipitated with anti-αv antibody (CHEMICON, AB1930). rHSAs associated with αvβ3 were detected by anti-c-myc antibody. […] For lane 4,5, and 6, the poly-HIS-tagged rHSAs were pulled down with Ni2+-charged chelating agarose. αvβ3 Associated with rHSAs was detected by anti-αv antibody (CHEMICON, AB 1930).

[3] = solubility of rHSA purified from Pichia pastoris expression system; type: physicochemical
Description: We cloned, expressed and purified this rHSA from a Pichia pastoris yeast rHSA expression system. The protein was soluble and was purified to apparent homogeneity. We confirmed the identity of the purified protein by Western blotting using anti-HSA antibody and anti-c-Myc antibody. The alpha-v-beta-3 integrin binding ability of RGD-HSA was confirmed by co-immunoprecipitation and Western blotting.

[4] = tested on: HeLa cells; assay: cellular uptake and/or binding of Rhodamine-labeled rHSAs, fluorescent microscopy; type: cell-based; details: 50 pmol labeled rHSA
Experimental: It has been reported that there is no αvβ3 type of integrin in HeLa cells. Nonetheless, HeLa cells are still able to bind fibronectin. Similar to the cellular uptake experiments for MDA-MB-435S cells, the fluorescent dye labeled rHSAs (50 pmol for rHSA, RGD-rHSA-FN and RGD-rHSA-4C) were added to cultured HeLa cells (with 250 μl EMEM in 24-well plate). Cellular uptake and/or binding was monitored at 1, 4, and 8 hours after washing with fresh non-labeled medium. Cellular uptake and/or binding of albumin was then visualized using fluorescent microscopy.

[5] = tested on: HeLa cells; assay: transfection of HeLa cells with peptides in the presence of HSA; type: cell-based; details: 250 pmol peptide, 250 pmol HSA
Experimental: Fatty acid-conjugated faTraF peptides and non-conjugated faTraE peptides (250 pmol) were added to separate batches of HeLa cells (24-well plate with 250 μl of EMEM medium). 250 Pmol of HSA was added to the incubation of some wells, but not others. Cells incubated in the presence of HSA and the fatty-acid conjugated peptides were transfected.

[6] = molecular target: HSA (Homo sapiens, UniProt P02768); details: 25 pmol peptide, 100 pmol defatted HSA, 15 minutes, room temperature
Description: The reaction mixture was loaded to 0.5×TBE acrylamide gel and separated under 12 mA current.

Substance	esterase activity [1]	αvβ3 integrin binding ability / ability to interact [2]	solubility of purified protein [3]	effect of RGD sequence on albumin uptake and/or binding [4]	transfection of HeLa cells [5]	complex with HSA on gel [6]
RGD-rHSA-FN: rHSA containing fibronectin RGD sequence (CGRGDSPC) in place of residues 53-62 of HSA	comparable	confirmed	soluble	mildly stimulated	–	–
fatty acid-conjugated faTraF peptide: fluorescein-labeled peptide CHLDAHWKG conjugated at Cys thiol with 16-methanethiosulfonyl hexadecanoic acid: HOOC—(CH2)15—S—S-peptide (not fully specified (residue 1); also: fluorescein-labeled (position not given here))	–	–	–	–	transfected	clearly observed
unmodified peptides: peptide CHLDAHWKG (SEQ ID NO: 58) conjugated with fluorescein at Lys, without fatty acid (CHLDAHWK(fluorescein)G) [reference compound]	–	–	–	–	can not be observed	–
